US20050267016A1, “CD-10 activated prodrug compounds” (priority 2001, published 2005)

Columns and labels:
[1] = test system: Porcine Kidney CD10; experiment: Hydrolysis by purified CD10; type: biochemical
Protocol: Reaction products were analyzed by HPLC with fluorescence detection. Rates were essentially linear over the incubation period. The observed product was Leu-doxorubicin.

[2] = test system: LNCaP (prostate carcinoma) cells; conditions: ratio of IC50
Protocol: (§1) Adherent cells, LNCaP (prostate carcinoma), HT-29 (colon carcinoma) and PC-3 (prostate carcinoma), were cultured in DMEM media containing 10% heat inactivated fetal calf serum (FCS). On the day of the study the cells were detached from the plate with a trypsin solution. The collected cells were washed and resuspended at a concentration of 0.25×10^6 cells/ml in DMEM containing 10% FCS. 100 μl of cell suspension were added to 96 well plates and the plates were incubated for 3 hours to allow the cells to adhere. […] The plates were then incubated for 24 hours, pulsed with 10 μl of a 100 μCi/ml ^3H-thymidine and incubated for an additional 24 hours (total incubation time 48 hours). The plates were harvested using a 96 well Harvester (Packard Instruments) and counted on a Packard Top Count Counter. Four parameter logistic curves were fitted to the ^3H-thymidine incorporation as a function of drug molarity using Prism software to determine IC50 values.
as §1, with “carcinoma), PC-3 (prostate” for “carcinoma), HT-29 (colon”, “and 22 RV1” for “and PC-3”, “with 1:0” for “with 10”
(§2) The effect of two known inhibitors of CD10 on prodrug activity in Ramos, LNCaP and Ball-1 cells was evaluated. The IC50 of Suc-βAla-Ile-Ala-Leu-Dox was determined in the presence of increasing concentration of the CD10 inhibitors, phosphoramidon and thiorphan.

[3] = test system: Ramos cells (CD10pos); experiment: cells; conditions: ratio of IC50
Protocol: (§3) Suspension cells, BALL-1, Ramos and Namalwa cells were cultured in RPMI media containing 10% heat inactivated fetal calf serum (FCS). On the day of the study, the cells were collected, washed and resuspended at a concentration of 0.5×10^6 cells/ml in RPMI containing 10% FCS. 100 µl of cell suspension was added to 96 well plates. […] Finally 10 μl of a 100 μCi/ml ^3H-thymidine was added per well and the plates were incubated for 24 hours. The plates were harvested using a 96 well Harvester (Packard Instruments) and counted on a Packard Top Count counter. Four parameter logistic curves were fitted to the ^3H-thymidine incorporation as a function of drug molarity using Prism software to determine IC50 values.
as §2

[4] = test system: Namalwa cells (CD10pos); experiment: cells; type: cell-based; conditions: ratio of IC50
Protocol: as §3

[5] = Second single dose Maximum Tolerated Dose (SD-MTD) study, 49 days; conditions: mouse, in vivo
Protocol: In a second single dose Maximum Tolerated Dose (SD-MTD) study, groups of five normal ICR mice were administered intravenous bolus doses of Suc-βAla-Leu-Ala-Leu-Dox. The mice were observed daily for 49 days and body weights measured twice weekly.
In a second single dose Maximum Tolerated Dose (SD-MTD) study, groups of five normal ICR mice were administered intravenous bolus doses of Suc-Leu-Ala-Leu-Dox. The mice were observed daily for 49 days and body weights measured twice weekly.
In a second single dose Maximum Tolerated Dose (SD-MTD) study, groups of five normal ICR mice were administered intravenously bolus doses of Suc-Ile-Ala-Leu-Dox. The mice were observed daily for 49 days and body weights measured twice weekly.
In a second single dose Maximum Tolerated Dose (SD-MTD) study, groups of five normal ICR mice were administered intravenous bolus doses of Suc-βAla-Ile-Ala-Leu-Dox. The mice were observed daily for 49 days and body weights measured twice weekly.

[6] = test system: LNCaP xenografts; experiment: LNCaP xenograft in SCID mice, Q6DX2, equitoxic comparison (Example 27); type: in vivo, C.B-17.SCID mice
Protocol: All compounds except Suc-βAla-Leu-Ala-Leu-Dox (three levels) were dosed at two levels with the goal to get a dose response for all compounds.
Knowing that the LNCaP tumor bearing nude mice have weight loss, we chose very conservative dose levels for each compound estimated to be well-tolerated equitoxic doses based on earlier studies and SD-MTD results. The high dose level for repeat dosing is usually 80% of their SD-MTD, and the low dose level is 80% of the high dose level. Accordingly, groups of ten male CD17.SCID mice, subcutaneously injected with 2.5 million LNCaP cells, were treated intravenously with the compounds at the levels described in Table 22 at six day intervals for a total of two identical doses (Q6DX2).
LNCaP tumors grew well in SCID mice, but the SCID mice with LNCaP tumor xenografts experienced severe weight loss, as 80% of control mice had more than 25% of weight loss by the end of the study. Nevertheless, the efficacy of different treatments at approximately equitoxic levels were compared based on the time it took for 50% of mice to reach toxic weight loss and the total numbers of mice with toxic weight loss at the end of study.

[7] = mouse, in vivo, iv, 100 umol/kg
Protocol: (§4) Plasma was obtained from three individual animals in each group at 5 minutes, 1, 2, 4, or 6 hr.

[8] = mouse, in vivo, iv, 100 umol/kg; remark: listed apart in the source
Protocol: as §4

[9] = Pharmacokinetic/metabolism study, single IV bolus; conditions: mice
Protocol: as §4

[10] = test system: Porcine Kidney CD10; experiment: Hydrolysis by purified CD10; type: biochemical; conditions: release of Leu-pNA vs Leu-Dox, 37° C., pH 7.4

Compound | % hydrolysis/10 hr ([1]; 12.5 μg/mL, 37° C., pH 7.4, product Leu-doxorubicin) | Fraction hydrolyzed relative to standard ([1]; standard Suc-βAla-Leu-Ala-Leu-Dox) | Ratio PC-3:LNCaP [2] | Ratio Ball-1:Ramos [3] | Ratio Ball-1:Namalwa [4] | MTD [5] | MTD ([5]; iv) | Time: 50% Weight Loss ([6]; 58.3 mg/kg Q6DX2) | Time: 100% Weight Loss ([6]; 58.3 mg/kg Q6DX2) | Time: 50% Weight Loss ([6]; 70.5 mg/kg Q6DX2) | Time: 100% Weight Loss ([6]; 70.5 mg/kg Q6DX2) | AUC(0-t) [7] | Plasma AUC0-6 hr of AL-Dox or AG-Dox* [8] | Plasma AUC0-6 hr of L-Dox or G-Dox* [8] | Major Plasma Metabolite [9] | rate of cleavage relative to Suc-βAla-Leu-Ala-Leu-Dox [10]
COc1cccc2c1C(=O)c1c(O)c3c(c(O)c1C2=O)C[C@@](O)(C(=O)CO)C[C@@H]3O[C@H]1C[C@H](NC(=O)[C@H](CC(C)C)NC(=O)[C@H](C)NC(=O)[C@H](CC(C)C)NC(=O)CCC(=O)O)[C@H](O)[C@H](C)O1 [Suc-Leu-Ala-Leu-Dox] | 8.3 % hydrolysis/10 hr | 0.75 | 50 | ~30 | ~35 | 42 mg/kg | 71 mg/kg | 33 days | 61 days | 26 days | 47 days | 634 µM·h | 1.6 µM·h | 5.1 µM·h | Leu-Dox | 
Suc-βAla-Leu-Ala-Leu-pNA |  |  |  |  |  |  |  |  |  |  |  |  |  |  |  | 590 times
